Data published in paper PMC9122904, “Insights into the client protein release mechanism of the ATP-independent chaperone Spy” (Nature Communications, 2022).

Legend:
Experiment in all cases: BLI; Octet RED96; client biotinylated and loaded on streptavidin sensors; Spy or Spy variant in solution at 0.25, 0.5, 1, 1.5 and 2 μM; 40 mM HEPES, 150 mM NaCl, pH 7.5; Kd calculated as koff/kon
Details in all cases: both partners purified
Spy_(29-127) = target: T1, Spy_(29-127) (UniProt P77754 52-150)
T1 construct: Spy chaperone, residues 29-127; source: E. coli BL21 (DE3), purified (Ni-NTA, cation exchange, SEC); not shown: His6, N-terminal, cleaved; SUMO, N-terminal, cleaved
T1 sequence (looked up): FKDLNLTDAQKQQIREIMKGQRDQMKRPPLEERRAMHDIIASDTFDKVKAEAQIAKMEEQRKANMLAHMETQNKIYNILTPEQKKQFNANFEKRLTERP
How it was run: (§1)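 Client proteins were biotinylated with EZ-link NHS-biotin at a 1:1 molar ratio, loaded onto streptavidin sensors, and measured by biolayer interferometry on an Octet RED96. The loaded sensors were dipped into 40 mM HEPES, 150 mM NaCl, pH 7.5 holding the analyte protein at 0.25, 0.5, 1, 1.5 or 2 μM, then moved to buffer without it. Fitting the wavelength-shift association and dissociation curves in SigmaPlot 12.0 gave the observed association rate and koff, kon was taken from the observed rate plotted against analyte concentration, and Kd was calculated as koff/kon.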

Spy_(24-124) = target: T2, Spy_(24-124) (UniProt P77754 47-147)
T2 construct: source: E. coli BL21 (DE3), purified (Ni-NTA, cation exchange, SEC); not shown: His6, N-terminal, cleaved; SUMO, N-terminal, cleaved
T2 sequence (looked up): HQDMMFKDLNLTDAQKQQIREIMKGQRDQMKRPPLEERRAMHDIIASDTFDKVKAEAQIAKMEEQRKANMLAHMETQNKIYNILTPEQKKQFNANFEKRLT
How it was run: as §1

Spy_(29-124) = target: T3, Spy_(29-124) (UniProt P77754 52-147)
T3 construct: also called termini-free Spy; source: E. coli BL21 (DE3), purified (Ni-NTA, cation exchange, SEC); not shown: His6, N-terminal, cleaved; SUMO, N-terminal, cleaved
T3 sequence (looked up): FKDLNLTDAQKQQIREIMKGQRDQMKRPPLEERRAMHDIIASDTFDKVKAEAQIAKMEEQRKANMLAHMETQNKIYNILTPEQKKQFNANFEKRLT
How it was run: as §1

Spy_(27-130) = target: T4, Spy_(27-130) (UniProt P77754 50-153)
T4 construct: Spy chaperone, residues 27-130; source: E. coli BL21 (DE3), purified (Ni-NTA, cation exchange, SEC); not shown: His6, N-terminal, cleaved; SUMO, N-terminal, cleaved
T4 sequence (looked up): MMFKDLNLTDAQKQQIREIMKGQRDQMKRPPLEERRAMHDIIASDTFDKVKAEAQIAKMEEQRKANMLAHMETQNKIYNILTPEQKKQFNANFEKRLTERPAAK
How it was run: as §1

Spy_(24-130) = target: T5, Spy_(24-130) (UniProt P77754 47-153)
T5 construct: Spy chaperone, residues 24-130; source: E. coli BL21 (DE3), purified (Ni-NTA, cation exchange, SEC); not shown: His6, N-terminal, cleaved; SUMO, N-terminal, cleaved
T5 sequence (looked up): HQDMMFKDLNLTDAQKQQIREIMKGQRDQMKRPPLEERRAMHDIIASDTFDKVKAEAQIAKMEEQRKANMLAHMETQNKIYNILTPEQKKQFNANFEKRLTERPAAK
How it was run: as §1

Spy_(29-130) = target: T6, Spy_(29-130) (UniProt P77754 52-153)
T6 construct: Spy chaperone, residues 29-130; source: E. coli BL21 (DE3), purified (Ni-NTA, cation exchange, SEC); not shown: His6, N-terminal, cleaved; SUMO, N-terminal, cleaved
T6 sequence (looked up): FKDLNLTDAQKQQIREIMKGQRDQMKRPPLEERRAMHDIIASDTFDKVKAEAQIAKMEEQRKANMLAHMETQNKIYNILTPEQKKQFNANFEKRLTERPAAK
How it was run: as §1

Spy_(27-127) = target: T7, Spy_(27-127) (UniProt P77754 50-150)
T7 construct: Spy chaperone, residues 27-127; source: E. coli BL21 (DE3), purified (Ni-NTA, cation exchange, SEC); not shown: His6, N-terminal, cleaved; SUMO, N-terminal, cleaved
T7 sequence (looked up): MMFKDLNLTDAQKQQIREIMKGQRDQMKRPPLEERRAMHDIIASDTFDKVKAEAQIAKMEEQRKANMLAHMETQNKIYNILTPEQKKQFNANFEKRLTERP
How it was run: as §1

Spy_(21-130) = target: T8, Spy_(21-130) (UniProt P77754 44-153)
T8 construct: Spy chaperone, residues 21-130; source: E. coli BL21 (DE3), purified (Ni-NTA, cation exchange, SEC); not shown: His6, N-terminal, cleaved; SUMO, N-terminal, cleaved
T8 sequence (looked up): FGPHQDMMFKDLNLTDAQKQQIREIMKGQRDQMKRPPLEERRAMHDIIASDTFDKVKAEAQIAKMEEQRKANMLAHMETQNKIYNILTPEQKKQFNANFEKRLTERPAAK
How it was run: as §1

Kd (Spy_(29-127)): 310 nM
Kd (Spy_(24-124)): 1640 nM
Kd (Spy_(29-124)): 323 nM
Kd (Spy_(27-130)): 297 nM
Kd (Spy_(24-130)): 1460 nM
Kd (Spy_(29-130)): 333 nM
Kd (Spy_(27-127)): 300 nM
Kd (Spy_(21-130)): 2490 nM
B1: Im7 H40W L53A I54A (natural protein)
chain: MELKNSISDYTEAEFVQLLKEIEKENVAATDDVLDVLLEWFVKITEHPDGTDAAYYPSDNRDDSPEGIVKEIKEWRAANGKPGFKQG
modifications: biotin (EZ-link NHS-biotin, 1:1 molar ratio of biotin to protein)
notes: Im7 (colicin E7 immunity protein) with H40W L53A I54A; Spy was made with an N-terminal His6-SUMO tag that was cleaved; also called Im7AAW; partially folded client; source: purified by a similar procedure to Spy
